The record followed here is article PMC7102964.

pKd: −log10 of the molar value.

Broadly, the pKd is −log10 of the Kd, conventionally taken in molar units.

Experiment in all cases: BLI
Conditions in all cases: none stated (T7 transcript); 3' end periodate-oxidised for biotin hydrazide; BLI (Octet RED96), biotin-tRNA on streptavidin tips: 50 mM Tris-HCl pH 8.0, 150 mM NaCl, 0.002% Tween-20, 25 C; 1:1 model
In general terms: In BLI a coated tip is dipped into the sample, and binding shifts an interference pattern.

For data set [1], the system named is OSGEPL1-K203E (Homo sapiens).
For data set [2], the system named is OSGEPL1-K203A (Homo sapiens).
Data set [3] concerns OSGEPL1 (mature, delta-MTS) (Homo sapiens).
Data set [4] concerns OSGEPL1-K203Q (Homo sapiens).
Data set [5] deals with OSGEPL1-K203R (Homo sapiens).
The test system of data set [6] is OSGEPL1-K299Q (Homo sapiens).

Turning to hmtRNAThr, the pKd is 5.07 in data set [1]; 4.54 in data set [2]; 5.17 in data set [3]; 4.85 in data set [4]; 5.44 in data set [5]; 5.17 in data set [6].
The substance hmtRNAThr-U34C gave a pKd in data set [3] of 5.26.
Same read-out and setting: the value for hmtRNAThr-U34G was 5.39.
